# Assay: soluble fraction after stress (log2 fold change); higher = more stays soluble; pooled small domains, quantitative proteomics
# Details: stress: pH 4
# Method in brief: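 Aggregation propensity here comes from the fold change in the soluble amount of each small protein domain after acid stress, measured in pooled custom libraries by high-throughput quantitative proteomics. The acid stress was pH 4. On the log2 scale, higher values mean more of the domain stayed soluble.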
row,Sequence,soluble fraction (log2)
1,HMAAAQILRAAVLRVPAEETMRFVTETPELRRYLGASLGPTAAIVRPGQEQNLAAALQSHGILVEFDE,0.106
2,HMAADLIGLEARVTLPLTEDQRGFIETSVRGSLVRRAALSASGRLDRGQRVVILRSEGTTLIVDAL,-0.372
3,HMAADRRKAERPLIDGQAVMDRFEVGPGPMVGKALKFLLALKRAEPDLDLAGTEERLDAWWNEQL,0.289
4,HMAAEFERKNGIVYFFHSSEKPHLNYPHVHARYGEDTISISLRDFTVIGSFSSKKKQKEAVEYVKNK,-0.352
5,HMAAEPDQQLIKPASDPVLRTMKIEELMKMSEQVKIQMSKAAKNFDYLEAARLRDEHFALENLIKLRS,0.156
6,HMAAGELSGEALIALIERHPMALSALATTFGHSESDLRAFVEPLARQGRLRLFESQGTLFVGGIG,0.00392
7,HMAAHHIILEEREQLSVSGVEEVESFDENTIVMLTNRGTLIVRGEELHIEKLSLDGGDLRVEGSIDSLTYE,-1.09
8,HMAAHWANFLEALRAGRARRVLVARGVEGWLLKELERLGAPYTLVPRIELDTLLRTTHHQGIAAEVE,-0.748
9,HMAAPELLTVRERQVAALISDGLSNQQIAHRLHLEVTTVKAHIGSIFNRLDMNNRVQIAIWAHDRQLVFS,0.0815
10,HMAAQDIILKRNAEQIEAIVKEITDTDVKYRKFTNTEGVTYSIRRSEVFSITYENGTMDLFA,0.206
11,HMAAQDLIVKTDASQVEARVLEISPDAVRYKRFSNPDGPTYVLPVAEIRYIRYANGEVEYYA,-0.207
12,HMAAQLAHVPAVTGRPLAEAQRILADNRLNAQVTQQPVAEPKLDGVVIAQKITEGTRTMRGATVPLIVGKY,0.148
13,HMAASGTVNSGGDPLRVRADPNTSSQILTKLSDGTQVEVLEQAENGWYKIAHEGISGFVSGEYLVVH,-0.356
14,HMAAVAPPVLERIASDLATRFAGTLSPETVDRYVRESYHLLAERAGITRYLPSLTARFAGDRLDA,-0.208
15,HMAAVEDLPVKSVNGKKYHYYTVQPKESLYSLSHKLGISRQEIIKYNPGVEDGLKAYEDLLFPYTPK,-0.419
16,HMAAVSTDEEFAALGIPAEWIPVLKSNGFQTVESLKKVAPGALFNQLGGLRKKNKLEIAMPSLDQVKAWLA,-0.278
17,HMADDFISTLFSEGIIIDTEVKQFAERQGSPLQFVRHIASNLPEPRDIITMGEVRSVMREGA,-1.04
18,HMADEEEIMVPQVVGKTYDEAKSELENAGFKVEKNEKTSDKASGTVISQSINGGAKKGTSVTLTVSKGN,0.132
19,HMADFYEVLGVERNASSDQIKRAYRKLARELHPDVNLDPVAQNRFKEVTEAYEVLSDPNKRSNFDRG,-0.0615
20,HMADGEWAEMQRQLTAAGLLVVGRAAQERIQRLSDISPLIEAAQRSNVVMLSERTVDEVLTLVPT,-0.468
21,HMADGTSIYAEREVLYVTSPTANTAKVYNVSGALVRTMTLSAGQTVRTALPAGFYVVALGNGNTHKVIV,0.0275
22,HMADKSLLELPGLDGDKVSALVTAGVRNVNDLADLATDELVEKTGFDEKTAADLIIAARAVVY,-0.283
23,HMADLNQTDIDSITKSVGGVEQYKSLMDWAGKTLSQDAIDSFDDLVNTGNKGSIQLAVNGLVAQYQNDN,0.121
24,HMADMKIHLRPYAHDTNRWHVDIRLMHPTAATEIRKRLVAPAGLSEAQARAWGERQVPTILGKALGVI,-0.042
25,HMADNILPAQTDAIKALATENGFSNESLEKYLIENYGTTIYGLSRNQGIQIINLFQSENPPKP,-0.207

row,Sequence,soluble fraction (log2)
1,HMADQIIEGILGKEGGYVNNPNDKGGPTRWGITQTTARAYGYSGDMKALPRDTAKAIYLSQYWT,-0.218
2,HMADTPQAYIRQMVQEAGADGIMLSTITDRLRARFKDFKVRDLGYAQMRQYMASTGTYDLEKSGRNFRVHL,0.181
3,HMADTSLDHLGVLVRHASDVDAWAEFFENRGVTLASQPRTHRDGARSFYVDDPDGNRVQVIYHPPI,-0.81
4,HMADWTETELAALRRAYASGTTRVSYDGKSVDYGSAEDLLSRIRTLQGAASDVAADAVAAVDA,-0.153
5,HMADYSMDDNAWNAKKADIDEWFEANPDFSANKAITDGLFSIGDSQVEMRKRYWASIAGVFAGLPNSPIG,-1.78
6,HMAEANTEADFVAIGVRAELLPILQKLGVHTIEQLKGIKATKLFNDIPGMRKKLKLDAVQNPTLQEIEGWL,-0.393
7,HMAEAPGSVELLAERLRPWWEIHGGEWGSKTKALRFLFGDQAPVAGSYWRALEAAIAQIESTT,-0.108
8,HMAEKNALWEEDAVYAADSSALARDGYDAIVRTDKGGKKGYLVVGTGGRERFMPLQTLVMLGYLKK,-0.0478
9,HMAEKRTAIITTARADIRQKPEATAPLAFEAVKDVVLELTDKPADGWVRVKHRDGSTGYIRINQI,-0.132
10,HMAELAKAKLDAAVQVALLKAGALDTDYLAYKLQGMDGVALDDKGSLTGWDTTLETLKSQYPTQFA,-0.388
11,HMAEPTLNERLREALSDPAKLKIAKAIKAKYPIITARDIDTFLNMHEKDIENGADPMDEFEEFFHANY,-0.132
12,HMAEPYDEDKVMEHLYIKGKDVVIAHLKHLKEHNEHVWLKKGVEWMQKNQDRLGFDMMEVIYVVHNH,-1.18
13,HMAEQEELDAIRPDLDGQEIMDILGIKPGREVGAARNFLLELRLDEGPLGYDEAVSRLLTWWAERT,-1.2
14,HMAETLLWADAAQEGLNRIVAAQPILVRISAAKRLRDASEQAAKAAGVSTVEIGHVQHASESLQFGDA,-0.0823
15,HMAETLRLVGATNLNTLARARHPDDLAARNEFRRAIAQANPALFAGKSKVGSVSLPAGTVLALPPEV,≥ 0.43
16,HMAEVDDESIKLYDGGYQSNTTKSRLNALLSEFGYDTEHVFQKQFEWFISIFDLTEKAMRTVPFSNGMRL,-0.257
17,HMAEVGDFTLAELIKVLFNEAGVLKAPVELRNDNTGGLQYRVGAYTDSETGWETIASIADLKGA,-1.74
18,HMAEWLLVQLTNGNWFYGEVIEKTDATIVLNTDILGKVSIQKLDIRRSISGPLTAAKRQEIEDSERAKD,-0.341
19,HMAFDDAHYKDMITSYLKKFKKGNRSEIENLIIPKLSEVLVEKQKKDKVKNLLQALRKDNQIRLKGKYWYL,0.196
20,HMAFIEADIGKRIKSLRNKKRITLESLAAETGFTKGYLSKVETSEKAPPVSTLGSIARALGVSISTLLGE,0.144
21,HMAFKDDDVQKAYDRYMDRYGELSVLYSDNGLKVDDDLFYKNNIPPNGKFTKEFFDELYELVNMEFINNY,-0.538
22,HMAFRLPNGYGTIRRLTGNRRKPYVALVNPTQVFDDEKGTSHYKYDLLGTFAEKIDAYNAVMQYHKSPGGL,-0.223
23,HMAGAPANLAARLREQILQGAYHDGQRLPAERHLAAEHGVSRGTVREALRLLEQGALLTRKRGSGSYVTYP,0.006
24,HMAGDVVVEVVGKVRDPQVVTLPKGSRVQDALEAAGGVKPGVNTTDQNLARLLVDGEQIRIGLSS,0.0302
25,HMAGFGDSLEKMSDAVEALKLLMSTEDARNDQNIQKIARELKDVFNKYRTHLRKSYPDQYDRIKSTL,-0.62
